Like-named read-outs stand apart in the source and are kept apart here. Where no end group is shown, it is not given here. [ ]: non-standard residue; d: D form. ΔPro = O=C(O)[C@@H]1C=CCN1; Aze = O=C(O)[C@@H]1CCN1
Experiments:
Test in all cases: cell-based or functional assay
[1] = target: EGLN1
[2] = target: EGLN2
[3] = target: EGLN3
[4] = target: EGLN1; remark: listed apart in the source
[5] = target: EGLN2; remark: listed apart in the source
[6] = target: EGLN3; remark: listed apart in the source

| Binder | Activity (%)* [1] [%] | Activity (%)* [2] [%] | Activity (%)* [3] [%] | Activity (%)* [4] [%] | Activity (%)* [5] [%] | Activity (%) [6] [%] |
| --- | --- | --- | --- | --- | --- | --- |
| DTDLDLEMLAPYIPMDDDFQ [Control peptide DTD20, DTDLDLEMLApYIPMDDDFQ] | 100 | 100 | 119 | 100 | 100 | 119 |
| DTDLDLEALA[ΔPro]YIPADDDFQ [DTDLDLEALA4YIPADDDFQ] | – | – | – | 124 | 173 | 74.4 |
| DTDLDLEALA[Aze]YIPADDDFQ [DTDLDLEALA8YIPADDDFQ] | – | – | – | 78.9 | 62 | 169 |
| DTDLDVEAYA[Aze]YIPADDDFQ [DTDLDVEAYA8YIPADDDFQ] | – | – | – | 32.3 | 27.2 | 33.5 |
| DTDLDTEAYA[Aze]YIPADDDFQ [DTDLDTEAYA8YIPADDDFQ] | – | – | – | 25.1 | 17 | 29.7 |
| DTDLDVEAFA[Aze]YIPADDDFQ [DTDLDVEAFA8YIPADDDFQ] | – | – | – | 21.2 | 13.9 | 24.5 |
| DTDLDIEAIA[Aze]YIPADDDFQ [DTDLDIEAIA8YIPADDDFQ] | – | – | – | 18.3 | 10 | 31.2 |
| DTDLDTEAFA[Aze]YIPADDDFQ [DTDLDTEAFA8YIPADDDFQ] | – | – | – | 17.4 | 8.9 | 18.7 |
| DTDLDTEALA[Aze]YIPADDDFQ [DTDLDTEALA8YIPADDDFQ] | – | – | – | 11.4 | 8.52 | 80.1 |
| DTDLDAEAAA[Aze]YIPADDDFQ [DTDLDAEAAA8YIPADDDFQ] | – | – | – | 10.3 | 4.16 | – |
| DTDLDAEAVA[Aze]YIPADDDFQ [DTDLDAEAVA8YIPADDDFQ] | – | – | – | 10 | 3.36 | 17.2 |
| DTDLDLEALA[b‑thioproline]YIPADDDFQ [DTDLDLEALA5YIPADDDFQ] | – | – | – | 8.93 | 7.9 | 11.1 |
| DTDLDVEAIA[Aze]YIPADDDFQ [DTDLDVEAIA8YIPADDDFQ] | – | – | – | 7.96 | 2.81 | 14.8 |
| DTDLDAEATA[Aze]YIPADDDFQ [DTDLDAEATA8YIPADDDFQ] | – | – | – | 7.6 | 1.55 | – |
| DTDLDAEAIA[Aze]YIPADDDFQ [DTDLDAEAIA8YIPADDDFQ] | – | – | – | 6.68 | 1.88 | 9.72 |
| DTDLDIEAVA[Aze]YIPADDDFQ [DTDLDIEAVA8YIPADDDFQ] | – | – | – | 6.35 | 1.96 | 18.8 |
| DTDLDVEAVA[Aze]YIPADDDFQ [DTDLDVEAVA8YIPADDDFQ] | – | – | – | – | – | 20.6 |
| DTDLDTEAVA[Aze]YIPADDDFQ [DTDLDTEAVA8YIPADDDFQ] | – | – | – | – | – | 10.3 |
| DTDLDWEALAPYIPADDDFQ (not fully specified; printed as DTDLDWEALApYIPADDDFQ) [DTDLDWEALApYIPADDDFQ] | 108 | 138 | 120 | – | – | – |
| DTDLDLEAMAPYIPADDDFQ [DTDLDLEAMApYIPADDDFQ] | 63.7 | 55.8 | 94.3 | – | – | – |

| Binder | Activity (%)* [1] [%] | Activity (%)* [2] [%] | Activity (%)* [3] [%] | Activity (%)* [4] [%] | Activity (%)* [5] [%] | Activity (%) [6] [%] |
| --- | --- | --- | --- | --- | --- | --- |
| DTDLDLEAKAPYIPADDDFQ [DTDLDLEAKApYIPADDDFQ] | 63.2 | 54.6 | 44.1 | – | – | – |
| DTDLDDEALAPYIPADDDFQ [DTDLDDEALApYIPADDDFQ] | 51 | 42.8 | 65 | – | – | – |
| DTDLDAEALAPYIPADDDFQ [DTDLDAEALApYIPADDDFQ] | 51 | 46.9 | 87.2 | – | – | – |
| DTDLDIEALAPYIPADDDFQ [DTDLDIEALApYIPADDDFQ] | 50.7 | 43.7 | 149 | – | – | – |
| DTDLDLEAWAPYIPADDDFQ (not fully specified; printed as DTDLDLEAWApYIPADDDFQ) [DTDLDLEAWApYIPADDDFQ] | 50.4 | 42.4 | 37.3 | – | – | – |
| DTDLDEEALAPYIPADDDFQ [DTDLDEEALApYIPADDDFQ] | 49.6 | 44.3 | 80.8 | – | – | – |
| DTDLDLEANAPYIPADDDFQ [DTDLDLEANApYIPADDDFQ] | 49.2 | 37.7 | 42.5 | – | – | – |
| DTDLDVEAIAPYIPADDDFQ (not fully specified; printed as DTDLDVEAIApYIPADDDFQ) [DTDLDVEAIApYIPADDDFQ] | 45.3 | 36.6 | 43.3 | – | – | – |
| DTDLDCEALAPYIPADDDFQ [DTDLDCEALApYIPADDDFQ] | 44.7 | 48.8 | 75.8 | – | – | – |
| DTDLDLEAVAPYIPADDDFQ (not fully specified; printed as DTDLDLEAVApYIPADDDFQ) [DTDLDLEAVApYIPADDDFQ] | 99.2 | 86.8 | 117 | – | – | – |
| DTDLDLEACAPYIPADDDFQ [DTDLDLEACApYIPADDDFQ] | 41.3 | 40.4 | 49.4 | – | – | – |
| DTDLDPEALAPYIPADDDFQ (not fully specified; printed as DTDLDPEALApYIPADDDFQ) [DTDLDPEALApYIPADDDFQ] | 40.8 | 37.4 | 76.6 | – | – | – |
| DTDLDGEALAPYIPADDDFQ [DTDLDGEALApYIPADDDFQ] | 37.3 | 32 | 40.9 | – | – | – |
| DTDLDLEAAAPYIPADDDFQ [DTDLDLEAAApYIPADDDFQ] | 36.1 | 30.9 | 30.2 | – | – | – |
| DTDLDVEAYAPYIPADDDFQ (not fully specified; printed as DTDLDVEAYApYIPADDDFQ) [DTDLDVEAYApYIPADDDFQ] | 35.5 | 32.4 | 44.5 | – | – | – |
| DTDLDSEALAPYIPADDDFQ (not fully specified; printed as DTDLDSEALApYIPADDDFQ) [DTDLDSEALApYIPADDDFQ] | 34.7 | 23.8 | 61.3 | – | – | – |
| DTDLDVEAFAPYIPADDDFQ (not fully specified; printed as DTDLDVEAFApYIPADDDFQ) [DTDLDVEAFApYIPADDDFQ] | 34.1 | 37.5 | 44.2 | – | – | – |
| DTDLDAEAVAPYIPADDDFQ [DTDLDAEAVApYIPADDDFQ] | 34 | 26.3 | 35.6 | – | – | – |
| DTDLDLEAHAPYIPADDDFQ [DTDLDLEAHApYIPADDDFQ] | 34 | 32.3 | 27 | – | – | – |

Source: patent US20080113383A1 (FIBRO GEN, published 2008)
